# Test results as given in patent publication US20120277143A1 (Janssen / Centocor, published 2012).
# Substitutions are numbered along the chain they refer to.
# T1: human IL4 (human, UniProt P05112 25-153, biotinylated in the SPR and competition assays (sites not given))
# T1 construct: Peprotech #200-04, mature protein produced in E. coli; also called hIL4; Interleukin 4
# T1 sequence: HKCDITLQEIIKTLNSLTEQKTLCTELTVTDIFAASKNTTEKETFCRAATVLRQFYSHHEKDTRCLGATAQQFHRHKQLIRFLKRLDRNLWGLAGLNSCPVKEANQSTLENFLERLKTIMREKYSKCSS
# B1: C06_26H2 (designed binder)
# chain: DLGKKLLEAARAGQDDEVRILMANGADVNAYDSSGDTPLHVAAIDGHLEIVEVLLKHGADVNASDASGDTPLHLAADFGHLKIVEVLLKHGADVNAEDMIGITPLHLAAYNGHLEIVEVLLKNGADVNASDVHGFTPLHLAAFIGHLGIVEVLLKYDADVNAQDKFGKTAFDISIDNRNEDLAEILQKLN
# notes: ankyrin repeat protein; His-tagged, IMAC-purified
# B2: C06_13A10 (designed binder)
# chain: DLGKKLLEAARAGQDDEVRILMANGADVNVSDRIGNTPLHLAAVYVHLEIVEVLLKNGADVNALDDDGLTPLHLAAADGHLEIVEVLLKHGADVNATDSHVWTPLHLAAFFGHLEIVEVLLKYGADVNAQDKFGKTAFDISIDNGNEDLAEILQKLN
# notes: as for B1
# B3: C06_19C3 (designed binder)
# chain: DLGKKLLEAARAGQDDEVRILMANGADVNATDDWGDTLLHLAATDGHLEIVEVLLKNGADVNAIDAMGMTPLHLAAVYGYLEIVEVLLKNGADVNAMDFSGFTPLHLAAFSGHLEIVEVLLKYGADVNAQDKFGKTAFDISIDNGNEDLAEILQKLN
# notes: as for B1
# B4: C06_54C2 (designed binder)
# chain: B3 chain with A108T
# notes: as for B1
# B5: C06_50E5 (designed binder)
# chain: B3 chain with V28A
# notes: as for B1
# B6: C06_19F8 (designed binder)
# chain: DLGKKLLEAARAGQDDEVRILMANGADVNATDDWGDTLLHLAATDGHLEIVEVLLKNGADVNASDSQGLTPLHLAAYYGHLEIVEVLLKYGADVNANDHHGITPLHLAAFAGHLEIVEVLLKYGADVNAQDKFGKTAFDISIDNGNEDLAEILQKLN
# notes: as for B1
# B7: C06_17A11 (designed binder)
# chain: B3 chain with T31I, D33E, L38P, T44I, D45E, N57Y, I64S
# notes: as for B1
# B8: C06_53E9 (designed binder)
# chain: DLGKELLEAASAGQDDEVHILMANGADVNASDKDGSTPLHLAAVYGHLEIVEVLLKYGADVNAEDMNGYTPLHLAAADGHLEIVEVLLKYGADVDAKDRTGWTPLHLAGEFGHLEIVEVLLKYGADVNAQDKFGKTAFDISIDNGNEDLAEILQKLN
# notes: as for B1
# B9: C06_4A7 (designed binder)
# chain: DLGKKLLEAARAGQDDEVRILMANGADVNAEDDWGLTPLHLAAMLGHLEIVEVLLKYGADVNAKDDTGFTPLHLAAVEGHLEIVEVLLKYGADVNASDILGRTPLHLAANFGHLEIVEVLLKYGADVNAQDKFGKTAFDISIDNGNEDLAEILQKLN
# notes: as for B1
# B10: C06_42A11 (designed binder)
# chain: B9 chain with R11S, A12V, R19H, E31T, D33A, M44L, Y57H, K64H, D66E, Y123H
# notes: as for B1
# B11: C06_20B8 (designed binder)
# chain: DLGKKLLEAASAGQDDEVHILMANGADVNAVDHDGFTPLHLAAADGHLEIVEVLLKHGADVNADDNFGWTPLHLAAFFGHLEIVEVLLKHGADVNAKDQTGLTPLHLAAVDGHLEIVEVLLKHGADVNAQDKFGKTAFDISIDNGNEDLAEILQKLN
# notes: as for B1
# B12: C06_42C7 (designed binder)
# chain: B11 chain with H19R
# notes: as for B1
# B13: C06_28D4 (designed binder)
# chain: B11 chain with K5E, H123N
# notes: as for B1
# B14: C06_43G2 (designed binder)
# chain: DLGKKLLEAARAGQDDEVRILMANGADVNAKDVTGETPLHLASWEGHLEIVEVLLKHGADVNAQDLFGITPLHLAAATDGHLEIVEVLLKNGADVNATDSNGFTPLHLAASYGHLEIVDVLLKNGADVNAHDFDGFTPLHLAASWGHLEIVEVLLKYGADVNAQDKFGKTAFDISIDNGNEDLAEILQKLN
# notes: as for B1
# B15: C06_44C12 (designed binder)
# chain: DLGKKLLEAASAGQDDEVHILMANGADVNALDDSGYTPLHLAAEDGHLEIVEVLLKHGADVNAADRMGDTPLHLAAFVGHLEIVEVLLKYGADVNAVDLAGVTPLHVAAFYGHLEIVEVLLKYGADVNAQDKFGKTAFDISIDNGNEDLAEILQKLN
# notes: as for B1
# B16: C06_24H1 (designed binder)
# chain: B15 chain with S11R, H19R, L31H, D33N, Y36F, D45I, H57Y, Y123N
# notes: as for B1
# B17: C06_48F3 (designed binder)
# chain: B15 chain with S11R, H19R, L31F, Y36L, E44D
# notes: as for B1
# B18: C06_44F6 (designed binder)
# chain: B15 chain with K5E, S11R, A64M, R66N, M67I, D69N, P71S, V78D, Y123H
# notes: as for B1
# B19: C06_14A4 (designed binder)
# chain: B9 chain with E31T, D33A, M44L, Y57H, K64H, D66E
# notes: as for B1
# Biological target: T1, human IL4
# Assay: Luminex competition, 67 pM biotin-IL4 binding to IL4RA-Fc beads
# Procedure: For biotinylation of IL4, recombinant human IL4 (Peprotech) was biotinylated at a 4:1 ratio using EZ-Link NHS-LC-Biotin (Pierce, #21336) for 2 hours at RT. The protein was dialyzed in PBS overnight to remove excess biotinylation reagent. Competition binding for cynomologous IL4 (SEQ ID NO: 5) was performed using the isolated protein biotinylated in the same manner.
# AR protein inhibition of IL4 binding to IL4 RA was assessed using IL4 RA-Fc (R&D Systems), comprising the Gly24-His232 which represents the ECD (SEQ ID NO: 5) fused to a human IgGl-Fc and therefor a disulfide linked homodimer. The protein was conjugated to carboxylated Luminex microspheres according to the manufacturer's protocol. For neutralization experiments, 5000 IL4RA-Fc conjugated beads in 50 μl were added to each well of a 96-well filter plate (Millipore). Biotinylated human IL4 was mixed with an appropriate dilution of AR protein in Luminex Assay Buffer (PBS, 1% BSA, pH 7.4) to give a final concentration of 67 pM IL4. The plate was incubated for 1 hour at RT in the dark on a plate shaker, set to shake vigorously to avoid bead aggregation. The plate was washed twice with 150 μl of wash buffer (PBS, 0.1% BSA, pH 7.4, 0.05% Tween-20) using a vacuum manifold followed by the addition of 50 μl of Streptavidin PE at 25 μg/ml and incubated at RT for 20 minutes. The plates were washed again and 150 μl of sheath fluid was added and the plate was placed on the shaker for 5 minute. Plates were read using a Luminex® 100 system; data were plotted as a function of AR protein concentration. IC₅₀ values were determined by fitting the data to the equation for sigmoidal dose response using PRISM software (GraphPAD PRISM) (Table 6).
row,IC50 [nM],Binder
1,0.0314,B1
2,0.0306,B2
3,0.0063,B3
4,0.0168,B4
5,0.0148,B5
6,0.0176,B6
7,0.0744,B7
8,0.0178,B8
9,0.0443,B9
10,0.0656,B10
11,0.0205,B11
12,0.0459,B12
13,0.0353,B13
14,0.0235,B14
15,0.0203,B15
16,0.0717,B16
17,0.0197,B17
18,0.0158,B18

# Biological target: T1, human IL4
# Assay: SPR ProteOn, biotin-IL4 on neutravidin chip, 1:1 fit
# Procedure: Purified binders selected as “hits” were ranked by their affinity on a ProteOn XPR-36 instrument (Bio-Rad). ProteOn is an optical biosensor instrument that measures protein-protein interactions in real time, based on Surface Plasmon Resonance technology similar to Biacore (GE). A rapid experimental protocol was performed as follows: On a GLC sensor chip (Bio-Rad), Neutravidin (Thermo Scientific) was covalently immobilized to a density of >5000 RU using amine coupling chemistry as described by the manufacturer. On one flow cell, biotinylated IL4 (Peprotech) was immobilized to a level of 250 RU, while another flow cell was used as reference, with neutravidin immobilized only. […] The retrieved values were used to rank the AR proteins by their affinity.
Kd [nM],koff [s⁻¹],kon [M⁻¹ s⁻¹],Binder
0.0712,0.000247,3.47e+06,B1
0.0592,0.000149,2.52e+06,B2
0.101,9.73e-05,962000,B3
0.4,0.000161,403000,B4
0.174,0.000126,725000,B5
1.41,5.18e-05,36600,B6
0.136,0.00014,1.03e+06,B7
0.326,0.000281,862000,B8
0.0858,2.73e-05,318000,B19
0.0075,5.43e-06,727000,B10
0.0809,0.000163,2.02e+06,B11
0.0978,0.000179,1.83e+06,B12
0.0856,0.000138,1.62e+06,B13
0.0427,5.98e-05,1.4e+06,B14
0.0436,3.77e-05,864000,B15
0.174,0.000151,872000,B17
0.0967,0.0002,2.07e+06,B18

# Biological target: T1, human IL4
# Assay: cell-based or functional assay
HEK Stat6 Inhibition IC50 [nM],A549 TARC Inhibition IC50 [nM],Type 1 Complex inhibition IC50 [nM],Binder
0.0033,–,–,B1
0.0054,0.621,0.0066,B2
0.0015,–,–,B3
0.0032,–,–,B4
0.0035,–,–,B5
0.0152,–,–,B6
0.003,–,–,B7
0.0143,–,–,B8
0.444,–,–,B9
0.0193,0.325,0.0032,B10
0.004,0.288,0.0038,B11
0.0068,–,–,B12
0.0032,–,–,B13
0.0016,0.262,0.0008,B14
0.0011,0.231,0.0017,B15
0.241,–,–,B16
0.0047,–,–,B17
0.0064,0.142,0.0249,B18
